Measurements: patent publication US20140004136A1 (CENTRE NATIONAL DE LA RECHERCHE SCIENTIFIQUE, published 2014)

Key:
[1] = biological target: T1, murine major histocompatibility complex class II molecule I-E^d (murine, UniProt P01904 26-216; P01915 32-225, limits assumed); experiment: competition with reference peptides on transfected fibroblasts, IL-2 secretion of T hybridoma 26.1
T1 construct: whole, on cells;extracellular; Expressed on transfected fibroblasts
T1 sequence (MHC II alpha, looked up): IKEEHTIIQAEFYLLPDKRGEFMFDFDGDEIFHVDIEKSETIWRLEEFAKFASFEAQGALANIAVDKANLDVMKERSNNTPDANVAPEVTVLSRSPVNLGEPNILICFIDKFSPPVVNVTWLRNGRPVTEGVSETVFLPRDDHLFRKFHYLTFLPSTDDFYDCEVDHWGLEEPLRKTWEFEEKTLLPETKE
T1 sequence (MHC II beta, looked up): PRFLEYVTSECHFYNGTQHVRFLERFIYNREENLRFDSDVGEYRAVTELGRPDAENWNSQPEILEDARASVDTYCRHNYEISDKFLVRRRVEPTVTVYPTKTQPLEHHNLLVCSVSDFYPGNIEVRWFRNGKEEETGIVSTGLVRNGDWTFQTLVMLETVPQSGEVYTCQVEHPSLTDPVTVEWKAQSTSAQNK

[2] = biological target: T2, murine major histocompatibility complex class II molecule I-A^d (murine, UniProt P04228 24-218; P01921 28-226, limits assumed); experiment: competition with reference peptides on transfected fibroblasts, IL-2 secretion of T hybridoma 26.2
T2 construct: whole, on cells;extracellular; Expressed on transfected fibroblasts
T2 sequence (MHC II alpha, looked up): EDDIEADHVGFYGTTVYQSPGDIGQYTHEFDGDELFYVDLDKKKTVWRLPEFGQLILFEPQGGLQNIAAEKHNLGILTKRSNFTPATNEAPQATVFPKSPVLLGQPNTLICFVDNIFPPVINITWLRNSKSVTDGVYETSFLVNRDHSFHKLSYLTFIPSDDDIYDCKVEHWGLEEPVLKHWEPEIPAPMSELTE
T2 sequence (MHC II beta, looked up): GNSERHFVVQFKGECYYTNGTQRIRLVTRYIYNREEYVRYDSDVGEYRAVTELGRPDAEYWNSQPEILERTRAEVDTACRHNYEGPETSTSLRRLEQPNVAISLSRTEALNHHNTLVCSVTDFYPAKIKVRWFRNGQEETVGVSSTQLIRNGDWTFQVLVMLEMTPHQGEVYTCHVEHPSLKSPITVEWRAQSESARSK

[3] = biological target: T3, murine major histocompatibility complex class II molecule I-A^k (murine, UniProt P01910 24-218; P06343 28-224, limits assumed); experiment: competition with reference peptides on transfected fibroblasts, IL-2 secretion of T hybridoma E7E9
T3 construct: whole, on cells;extracellular; Expressed on transfected fibroblasts

Measured: binding result

B1: 131-151 peptide of the U1-70K protein (RIHMVYSKRSGKPRGYAFIEY) (peptide)
peptide: RIHMVYSKRSGKPRGYAFIEY
notes: Synthetic peptide; also called parent peptide; non-phosphorylated peptide
binds: all assays above
